Data from paper PMC5978004.

Target: human MALT1 (mammalian expression) (human) (UniProt Q9UDY8)
Chain of UniProt Q9UDY8 (Q9UDY8 whole entry): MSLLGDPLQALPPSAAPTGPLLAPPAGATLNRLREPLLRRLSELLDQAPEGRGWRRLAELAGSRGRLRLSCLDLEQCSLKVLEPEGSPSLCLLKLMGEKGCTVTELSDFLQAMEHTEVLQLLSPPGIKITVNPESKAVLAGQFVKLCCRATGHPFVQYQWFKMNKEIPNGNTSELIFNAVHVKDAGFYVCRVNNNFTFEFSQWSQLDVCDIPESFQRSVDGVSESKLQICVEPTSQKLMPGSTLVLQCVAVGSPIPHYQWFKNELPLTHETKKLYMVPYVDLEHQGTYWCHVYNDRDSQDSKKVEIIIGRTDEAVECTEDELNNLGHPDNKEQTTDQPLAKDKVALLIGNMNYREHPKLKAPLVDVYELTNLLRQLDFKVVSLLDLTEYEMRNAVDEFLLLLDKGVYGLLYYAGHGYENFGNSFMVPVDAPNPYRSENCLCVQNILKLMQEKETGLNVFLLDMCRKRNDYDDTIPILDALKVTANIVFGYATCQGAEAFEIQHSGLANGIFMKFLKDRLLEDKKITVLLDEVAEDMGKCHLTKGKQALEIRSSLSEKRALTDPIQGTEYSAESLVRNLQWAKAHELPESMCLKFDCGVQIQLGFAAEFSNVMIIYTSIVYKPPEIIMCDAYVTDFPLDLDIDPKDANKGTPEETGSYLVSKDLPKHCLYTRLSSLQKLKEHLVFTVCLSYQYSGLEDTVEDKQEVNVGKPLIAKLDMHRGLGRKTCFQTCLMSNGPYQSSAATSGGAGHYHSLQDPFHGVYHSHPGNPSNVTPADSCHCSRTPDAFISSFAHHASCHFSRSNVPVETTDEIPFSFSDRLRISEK

Substance: Nematostella vectensis Bcl10 (NvBcl10), E-tagged, in pCAGGS (natural protein)
- human MALT1-dependent NF-κB luciferase reporter induction in MALT1-deficient HEK293T cells with or without human MALT1: 2.5 fold
